Assay results as given in US11680298B2, “Method of identifying risk of cancer and therapeutic options” (Agency for Science, Technology and Research, priority 2016, dated 2023).

B1: S100A7: Recombinant S100A7 protein purchased from ProSpec (Cat no: pro-149) (protein, UniProt P31151 2-101, looked up)
Protein S100-A7: SNTQAERSIIGMIDMFHKYTRRDDKIEKPSLLTMMKENFPNFLSACDKKGTNYLADVFEKKDKNEDKKIDFSEFLSLLGDIATDYHKQSHGAAPCSGGSQ

Columns and labels:
IRAK1 [1] = biological target: T1, IRAK1 (Homo sapiens, UniProt P51617); assay: Western blot of phospho-IRAK1 in breast cancer cells and patient-derived tumourspheres; format: cell-based; set-up: endogenous in cells; host or cells: MB468 and MB231 cells; PDX-derived tumourspheres
T1 sequence (P51617 whole entry): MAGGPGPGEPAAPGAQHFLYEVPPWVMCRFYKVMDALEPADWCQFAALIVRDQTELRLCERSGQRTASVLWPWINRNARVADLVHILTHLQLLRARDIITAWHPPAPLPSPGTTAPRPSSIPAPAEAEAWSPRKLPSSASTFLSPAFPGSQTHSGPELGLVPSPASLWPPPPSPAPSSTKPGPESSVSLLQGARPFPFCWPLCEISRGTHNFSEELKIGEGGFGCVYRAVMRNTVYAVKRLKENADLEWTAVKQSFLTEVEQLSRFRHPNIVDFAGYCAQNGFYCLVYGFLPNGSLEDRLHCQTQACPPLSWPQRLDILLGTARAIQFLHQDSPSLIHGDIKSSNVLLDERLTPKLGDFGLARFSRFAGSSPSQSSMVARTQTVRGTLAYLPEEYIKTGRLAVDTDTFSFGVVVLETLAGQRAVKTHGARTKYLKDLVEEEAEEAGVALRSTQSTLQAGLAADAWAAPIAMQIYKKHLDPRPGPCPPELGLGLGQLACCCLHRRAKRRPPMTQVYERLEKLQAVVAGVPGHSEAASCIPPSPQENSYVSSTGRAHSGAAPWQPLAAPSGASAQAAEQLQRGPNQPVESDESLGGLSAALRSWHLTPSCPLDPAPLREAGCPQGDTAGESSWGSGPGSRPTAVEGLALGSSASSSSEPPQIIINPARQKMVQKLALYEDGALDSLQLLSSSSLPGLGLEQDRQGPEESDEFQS
Procedure: Recombinant IL-1p (Cat no: 200-01B) was purchased from Peprotech (Rocky Hill, N.J.). Recombinant S100A7 (Cat no: pro-149), S100A8 (Cat no: pro-800) and S100A9 (Cat no: pro-814), were purchased from ProSpec (East Brunswick, N.J.). Cells were treated with recombinant proteins at stated concentration for 20 min before harvesting for western blot. Paclitaxel (Cat no: P-9600) was purchased from LC Lab (Woburn, Mass.).
(§1) All immunoblots shown in this specification represent at least two independent experiments. In brief, cells were washed with PBS and lysed in RIPA buffer supplemented with protease and phosphatase inhibitors and further sonicated using an XL2000 Microson Ultrasonice Processor (Misonix). Equal amounts of protein extract were separated on SDS-polyacrylamided gels and transferred to PVDF membranes. Membranes were further blocked with 5% milk or BSA, and then probed with the following antibodies: anti-IRAK1 was purchased from Santa Cruz Biotechnology (Santa Cruz, Calif.; sc-7883), anti-phospho-IRAK1 (T209) was purchased from Assay Biotech (Sunnyvale, Calif.; A1074), anti-JAK2 (Danvers, Mass.; #3230) and anti-phospho-JAK2 ([…]) (Danvers, Mass.: #3774) were purchased from Cell Signaling Technology, anti-actin was purchased from Sigma Aldrich CA; A5441). For protein extraction of xenograft tumours, snap frozen samples were resuspended in RIPA buffer supplemented with protease and phosphatase inhibitors and homogenized with QIAGEN TissueLyzer II as described by the manufacturer, followed by immunoblotting as described above.

[2] = system: K239S mutant cells (MB436, MB468); assay: Tumoursphere formation of K239S mutant IRAK1 cells with recombinant protein rescue; format: cell-based; conditions: recombinant protein added to culture medium of K239S mutant IRAK1 cells
Procedure: Mammosphere Formation Assay PDX-derived tumoursphere cells were trypsinized and passed through 40 μm cell strainer to achieve single cell suspensions. 3×10^4 cells were seeded in 6-well ultra-low attachment plates (Corning, N.Y.; CLS3471) in serum-free DMEM/F12 supplemented with N2 and B27 (Gibco, Grand Island, N.Y.), 20 ng/ml epidermal growth factor (MACS, Auburn, Calif.), 20 ng/ml basic fibroblast growth factor (MACS, Auburn, Calif.), 0.2 μM Thiazovivin ([…] Technologies, Vancouver, BC) and penicillin/streptomycin (Gibco, Carlsbad, Calif.). For breast cancer cell lines and MCF10A cell line, 3×10^4 cells were seeded in 6-well ultra-low attachment plates in Mammocult medium (Stem Cell Technologies, Vancouver, BC, Canada), supplemented with fresh hydrocortisone (0.5 μg/ml) and heparin (1:500). Mammospheres were maintained at 37° C. with 5% CO2 and topped up with medium every 3 days. After 7-9 days, mammospheres were stained with INT (2-(4-iodophenyl)-3-(4-nitrophenyl)-5-phenyl-2H-tetrazolium chloride, Sigma-Aldrich) and quantified. Imaging and quantification were done using GelCount apparatus and associated software (Oxford Optronix, Abingdon, UK). […] Cell Proliferation Assay […]

IRAK1 [3] = biological target: T1, IRAK1; assay: Western blot of phospho-IRAK1 in breast cancer cells and patient-derived tumourspheres; format: cell-based; set-up: endogenous in cells; host or cells: MB468 and MB231 cells; PDX-derived tumourspheres; conditions: MCF10A, long-term treatment with recombinant protein for 10 days
[4] = system: tumourspheres from both cell lines and patient-derived samples; assay: S100A8/S100A9 recombinant protein rescue of pacritinib-treated tumourspheres; format: cell-based, human; conditions: recombinant protein 10 ng/ml added to culture medium; pacritinib 2.5 μM or 1 μM (method)
Procedure: (§2) Mammosphere Formation Assay PDX-derived tumoursphere cells were trypsinized and passed through 40 μm cell strainer to achieve single cell suspensions. 3×10^4 cells were seeded in 6-well ultra-low attachment plates (Corning, N.Y.; CLS3471) in serum-free DMEM/F12 supplemented with N2 and B27 (Gibco, Grand Island, N.Y.), 20 ng/ml epidermal growth factor (MACS, Auburn, Calif.), 20 ng/ml basic fibroblast growth factor (MACS, Auburn, Calif.), 0.2 μM Thiazovivin ([…] Technologies, Vancouver, BC) and penicillin/streptomycin (Gibco, Carlsbad, Calif.). For breast cancer cell lines and MCF10A cell line, 3×10^4 cells were seeded in 6-well ultra-low attachment plates in Mammocult medium (Stem Cell Technologies, Vancouver, BC, Canada), supplemented with fresh hydrocortisone (0.5 μg/ml) and heparin (1:500). Mammospheres were maintained at 37° C. with 5% CO2 and topped up with medium every 3 days. After 7-9 days, mammospheres were stained with INT (2-(4-iodophenyl)-3-(4-nitrophenyl)-5-phenyl-2H-tetrazolium chloride, Sigma-Aldrich) and quantified. Imaging and quantification were done using GelCount apparatus and associated software (Oxford Optronix, Abingdon, UK). […] Cell Proliferation Assay

MCF10A = assay: Mammosphere formation assay, MCF10A; format: cell-based; conditions: long-term treatment with recombinant protein for 10 days
Procedure: as §2

JAK2 = biological target: T2, JAK2 (Homo sapiens, UniProt O60674); assay: Western blot of phospho-JAK2 in breast cancer cells and patient-derived tumourspheres; format: cell-based; conditions: patient-derived tumourspheres, IL-1 treatment
T2 construct: endogenous in cells; host or cells: MB468 and MB231 cells; PDX-derived tumourspheres
T2 sequence (O60674 whole entry): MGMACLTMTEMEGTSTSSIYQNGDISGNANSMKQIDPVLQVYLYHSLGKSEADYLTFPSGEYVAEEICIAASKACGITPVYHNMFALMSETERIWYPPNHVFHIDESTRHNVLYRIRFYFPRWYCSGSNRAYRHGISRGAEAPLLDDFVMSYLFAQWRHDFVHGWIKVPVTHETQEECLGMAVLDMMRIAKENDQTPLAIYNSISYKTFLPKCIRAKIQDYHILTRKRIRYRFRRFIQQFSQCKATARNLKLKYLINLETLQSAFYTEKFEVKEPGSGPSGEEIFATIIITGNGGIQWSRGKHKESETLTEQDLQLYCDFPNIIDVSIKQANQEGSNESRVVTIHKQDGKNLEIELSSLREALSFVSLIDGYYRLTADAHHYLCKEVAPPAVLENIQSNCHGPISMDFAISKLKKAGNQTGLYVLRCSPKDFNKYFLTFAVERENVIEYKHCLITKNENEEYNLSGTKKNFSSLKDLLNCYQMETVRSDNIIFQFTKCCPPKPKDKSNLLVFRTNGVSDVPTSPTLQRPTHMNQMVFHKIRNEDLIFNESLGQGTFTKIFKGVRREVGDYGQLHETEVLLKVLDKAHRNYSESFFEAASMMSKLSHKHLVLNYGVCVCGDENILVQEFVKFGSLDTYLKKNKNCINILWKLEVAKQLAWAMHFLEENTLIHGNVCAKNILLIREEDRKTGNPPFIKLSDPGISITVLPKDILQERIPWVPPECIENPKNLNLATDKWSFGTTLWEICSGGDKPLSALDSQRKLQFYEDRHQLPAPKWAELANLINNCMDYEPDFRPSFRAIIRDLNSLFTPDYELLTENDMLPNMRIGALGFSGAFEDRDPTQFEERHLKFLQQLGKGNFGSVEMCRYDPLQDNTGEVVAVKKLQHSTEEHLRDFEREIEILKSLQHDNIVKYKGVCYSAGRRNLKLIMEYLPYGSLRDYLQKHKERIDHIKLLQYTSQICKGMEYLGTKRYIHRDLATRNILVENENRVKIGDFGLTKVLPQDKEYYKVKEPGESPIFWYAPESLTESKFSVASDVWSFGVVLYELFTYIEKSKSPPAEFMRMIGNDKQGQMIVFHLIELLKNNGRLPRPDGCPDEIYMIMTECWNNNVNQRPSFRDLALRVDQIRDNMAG
Description: as §1

EL12-58 PDX tumours = assay: Neoadjuvant breast cancer PDX model of tumour recurrence; format: in vivo, NOD-SCID mice; conditions: after paclitaxel-induced regression and surgery; 20 mg/kg paclitaxel, 150 mg/kg pacritinib or both
[5] = MB231 cells, recombinant protein as low as 1 ng/ml

Row | Molecule | IRAK1 phosphorylation (IRAK1 [1]; [5]) | rescue of tumoursphere growth [2] | IRAK1 phosphorylation (IRAK1 [3]) | rescue of pacritinib-induced tumoursphere growth inhibition [4] | mammosphere formation (MCF10A) | IRAK1 phosphorylation (IRAK1 [1]; patient-derived tumourspheres, IL-1 treatment) | JAK2 phosphorylation (JAK2) | tumour regrowth after surgical removal of residual tumour (EL12-58 PDX tumours)
1 | S100A8: Recombinant S100A8 protein purchased from ProSpec (Cat no: pro-800) | able to induce IRAK1 phosphorylation | able to rescue the tumoursphere growth | increased IRAK1 phosphorylation | effectively rescued pacritinib-induced growth inhibition | increased mammosphere formation |  |  | 
2 | S100A9: Recombinant S100A9 protein purchased from ProSpec (Cat no: pro-814) | able to induce IRAK1 phosphorylation | able to rescue the tumoursphere growth | increased IRAK1 phosphorylation | effectively rescued pacritinib-induced growth inhibition | increased mammosphere formation |  |  | 
3 | IL-1p: Recombinant IL-1p (Cat no: 200-01B) purchased from Peprotech |  |  |  |  |  | did not have an obvious effect on IRAK1 phosphorylation | remarkably induced JAK2 phosphorylation | 
4 | CC(=O)O[C@H]1C(=O)[C@@]2(C)[C@H]([C@H](OC(=O)c3ccccc3)[C@]3(O)C[C@H](OC(=O)[C@H](O)[C@@H](NC(=O)c4ccccc4)c4ccccc4)C(C)=C1C3(C)C)[C@]1(OC(C)=O)CO[C@@H]1C[C@@H]2O [paclitaxel] |  |  |  |  |  |  |  | slowed down
5 | B1 | able to induce IRAK1 phosphorylation |  |  |  |  |  |  | 
